This note sets out measurements from patent US20190016760A1 (Sanofi, published 2019).

Data set [1] concerns the molecule itself.
Data set [2] concerns the molecule itself. This is another data set of the same source.
Data set [3] deals with the molecule itself. This is another data set of the same source.

Read-outs that look alike come from different tables or passages of the source.

B1: Shigella flexneri MxiH protein fused to the lamprey VLR-B antibody C-terminal domain SEQ ID NO: 2, expressed in E. coli (other)
chain: MSVTVPNDDWTLSSLSETFDDGTQTLQGELTLALDKLAKNPSNPQLLAEYQSKLSEYTLYRNAQSNTVKVIKDVDAAIIQNFRNCTSIQERKNDGGDCGKPACTTLLNCANFLSCLCSTCALCRKR
notes: The expected monomer weight is 13.86 kDa; Found in the insoluble fraction; also called MxiH-lamprey
Turning to B1, in data set [1], the binding result is “binds”.

B2: Shigella flexneri IpaD protein fused to the lamprey VLR-B antibody C-terminal domain SEQ ID NO: 2, expressed in E. coli (other)
chain: MNITTLTNSISTSSFSPNNTNGSSTETVNSDIKTTTSSHPVSSLTMLNDTLHNIRTTNQALKKELSQKTLTKTSLEEIALHSSQISMDVNKSAQLLDILSRHEYPINKDARELLHSAPKEAELDGDQMISHRELWAKIANSINDINEQYLKVYEHAVSSYTQMYQDFSAVLSSLAGWISPGGNDGNSVKLQVNSLKKALEELKEKYKDKPLYPANNTVSQEQANKWLTELGGTIGKVSQKNGGYVVSINMTPIDNMLKSLDNLGGNGEVVLDNAKYQAWNAGFSAEDETMKNNLQTLVQKYSNANSIFDNLVKVLSSTISSCTDTDKLFLHFNCTSIQERKNDGGDCGKPACTTLLNCANFLSCLCSTCALCRKR
notes: also called IpaD-lamprey
With B2, the binding result in data set [2] is “binds”.

B3: Shigella flexneri MxiH protein fused to the lamprey VLR-B antibody C-terminal domain SEQ ID NO: 2, with GGSLE linker and 6xHis tag (other)
chain: MSVTVPNDDWTLSSLSETFDDGTQTLQGELTLALDKLAKNPSNPQLLAEYQSKLSEYTLYRNAQSNTVKVIKDVDAAIIQNFRNCTSIQERKNDGGDCGKPACTTLLNCANFLSCLCSTCALCRKRGGSLEHHHHHH
notes: also called MxiH-lamprey-His
As for B3, in data set [3], the binding result is “binds”.
